From the DeepSol protein solubility set

Assay: soluble on expression in E. coli; label from the status in PepcDB or PDB records

Sequence | soluble on expression in E. coli
MAQREWVEKDFYQELGVSSDASPEEIKRAYRKLARDLHPDANPGNPAAGERFKAVSEAHNVLSDPAKRKEYDETRRLFAGGGFGGRRFDSGFGGGFGGFGVGGDGAEFNLNDLFDAASRTGGTTIGDLFGGLFGRGGSARPSRPRRGNDLETETELDFVEAAKGVAMPLRLTSPAPCTNCHGSGARPGTSPKVCPTCNGSGVINRNQGAFGFSEPCTDCRGSGSIIEHPCEECKGTGVTTRTRTINVRIPPGVEDGQRIRLAGQGEAGLRGAPSGDLYVTVHVRPDKIFGRDGDDLTVTVPVSFTELALGSTLSVPTLDGTVGVRVPKGTADGRILRVRGRGVPKRSGGSGDLLVTVKVAVPPNLAGAAQEALEAYAAAERSSGFNPRAGWAGNR | soluble
MAQSKLYPVVMAGGSGSRLWPLSRVLYPKQFLCLKGDLTMLQTTICRLNGVECESPVVICNEQHRFIVAEQLRQLNKLTENIILEPAGRNTAPAIALAALAAKRHSPENDPLMLVLAADHVIADEDAFRAAVRNAMPYAEAGKLVTFGIVPDLPETGYGYIRRGEVSAGEQDTVAFEVAQFVEKPNLETAQAYVASGEYYWNSGMFLFRAGRYLEELKKYRPDILDACEKAMSAVDPDLDFIRVDEEAFLACPEESVDYAVMERTADAVVVPMDAGWSDVGSWSSLWEISAHTAEGNVCHGDVINHKTENSYVYAESGLVTTVGVKDLVVVQTKDAVLIADRNAVQDVKKVVEQIKADGRHEHRVHREVYRPWGKYDSIDAGDRYQVKRITVKPGEGLSVQMHHHRAEHWVVVAGTAKVTIDGDIKLLGENESIYIPLGATHCLENPGKIPLDLIEVRSGSYLEEDDVVRFADRYGRV | soluble
MAQVRQEIAREQEKAARLARNLAKYLSPQVWEMIFSGKKSVRLETQRKKLTVFFSDIRGFTELSEELEAEALTDLLNNYLNEMSKIALKYGGTIDKFVGDCVMVFFGDPSTQGAKKDAVAAVSMGIAMRKHMKVLRQQWRAQGITKPLEIRMGINTGYCTVGNFGADTRMDYTIIGREVNLASRLESASEAGEILISHETYSLIKDVIMCRDKGQIAVKGFSRPVQIYQVVDSRRDLGAAPSYVEHELPGFSMYLDTNNIQNYDKERVIQALQQAAER | not soluble
MARARKGALVQCDPSIKALILQIDAKMSDIVLEELDDTHLLVNPSKVEFVKHELNRLLSKNIYNPMDEEENQ | soluble
MARATTKQDLIMASNGQFEKLWVLIDGMSDDLQNATFADQMATAGKEAHWGRDKNLRDVLVHLYEWHQLLLNWINSNSKGERKPFLPEPYNWKTYSVMNVEFWKKHQQTPLAEAKDKLKESHRQVMALIETFSNDELFAKGVFDWTDTSTLGAYCVSATSSHYDWAMKKIKLHIKTGK | not soluble
MARDALTDALTVGELRRRVHALVLGKRQRVYSGAMFLVEVVHHPELSAMLGLEDNKLLLAMIAQRLQMQSDYFQVARHSSDSFMVWAPDLDPRSARDVAPEVLDALSQPYELRGQPLIVGFRLSGALYAQHGACFDELERSLHIAMLHLDESAGAAWNMFEPSMLEHQRHYQGLEHHHHHH | not soluble
MARKEAKMLYIFDLGNVIVDIDFNRVLGAWSDLTRIPLASLKKSFHMGEAFHQHERGEISDEAFAEALCHEMALPLSYEQFSHGWQAVFVALRPEVIAIMHKLREQGHRVVVLSNTNRLHTTFWPEEYPEIRDAADHIYLSQDLGMRKPEARIYQHVLQAEGFSPSDTVFFDDNADNIEGANQLGITSILVKDKTTIPDYFAKVLC | soluble
MARKNAVKDNLEQIQHQSYSELQELLSEANSMLADSAAFAGDKADSARARIGALLEKANDALGKGGSAVAERSRHAVDATESYIGANPWQTVAITTAVGLLAGFLLGRRS | not soluble
MARLARLGEPFALATVVASSGSSPRKAGAKMLIRGDGSALGTVGGGHVEQDTLAAARASLAEGAPRTLEFVLTEEHGYACGGSMSVFIEPQGRRPLLVMFGAGHVGRAVTALAHGCGFRVIVVDERPEYAVPALLPGADEIVCVPVGAAFARLTLDRESFAVIATPGHVHDFDAVRGCLATEVGFIGLLGSRRKREALMKTLTEEGYEAGRQARVVTPVGLDIGAQTPEEIAVSIVGQLVKLRRQA | not soluble
MARLNVKPTRMELSNLKNRLKTATRGHKLLKDKRDELMRRFVDLIRENNELRQTLEKELAANMKEFVLAKASENSLMVEELFAVPVHEVTLWIDIENIMSVNVPKFHVQSNTAREQEQGEFAYSYLSSNSEMDNTIQKTKELLEKLLRLAEVEKTCQLMADDIEKTRRRVNGLEYSIIPQLEETIHYIELKLEEAERASLVRIMKITSLEHHHHHH | not soluble
